Assay results from patent US20240343788A1 (published 2024).

Molecular target: T1, A155
T1 construct: also called antibody-based multispecific antagonist A155
Experiment: BLI (Octet RED96), antagonist captured on biosensor, ligand in solution
Excerpt: The binding sensorgrams were collected using the 8-channel detection mode on the biosensor.

- Kd: ~20 nM
B1: TGF-β3 (ligand)
chain: ALDTNYCFRNLEENCCVRPLYIDFRQDLGWKWVHEPKGYYANFCSGPCPYLRSADTTHSTVLGLYNTLNPEASASPCCVPQDLEPLTILYYVGRTPKVEQLSNMVVKSCKCS
notes: also called TGF-33 (misprint in the text)
